Reference: patent CN113444180A (SHANGHAI SINOBAY BIO TECH CO LTD, dated 2021)

T1: AXL on CHO-AXL细胞 (human, UniProt P30530 26-894)
T1 construct: whole, on cells; the cell line itself is only called CHO-AXL
T1 sequence (looked up): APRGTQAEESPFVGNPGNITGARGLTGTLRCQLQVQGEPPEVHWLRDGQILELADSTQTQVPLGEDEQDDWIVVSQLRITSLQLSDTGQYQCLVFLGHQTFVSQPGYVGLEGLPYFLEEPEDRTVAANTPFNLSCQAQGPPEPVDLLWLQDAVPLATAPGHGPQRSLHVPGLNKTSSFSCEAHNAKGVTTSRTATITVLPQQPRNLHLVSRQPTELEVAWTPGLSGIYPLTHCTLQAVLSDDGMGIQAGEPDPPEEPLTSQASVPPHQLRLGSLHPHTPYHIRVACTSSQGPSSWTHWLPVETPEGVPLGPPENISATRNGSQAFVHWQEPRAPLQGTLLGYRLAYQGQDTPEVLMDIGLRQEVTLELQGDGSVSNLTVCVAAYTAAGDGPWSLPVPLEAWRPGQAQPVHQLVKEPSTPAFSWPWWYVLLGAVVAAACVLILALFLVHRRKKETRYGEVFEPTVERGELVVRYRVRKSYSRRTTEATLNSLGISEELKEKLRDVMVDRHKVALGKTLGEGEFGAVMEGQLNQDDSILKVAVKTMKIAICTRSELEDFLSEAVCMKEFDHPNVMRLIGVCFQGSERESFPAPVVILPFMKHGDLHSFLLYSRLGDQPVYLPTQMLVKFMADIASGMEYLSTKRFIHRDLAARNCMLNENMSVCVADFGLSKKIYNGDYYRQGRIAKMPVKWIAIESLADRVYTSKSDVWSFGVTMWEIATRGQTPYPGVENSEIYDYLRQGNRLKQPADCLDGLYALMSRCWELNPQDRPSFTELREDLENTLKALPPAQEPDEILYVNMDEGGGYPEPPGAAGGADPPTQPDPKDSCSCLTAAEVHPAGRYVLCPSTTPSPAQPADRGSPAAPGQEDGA


Tests used:
AXL on CHO-AXL细胞 [1] = target: T1, AXL on CHO-AXL细胞; experiment: flow cytometry on CHO-AXL cells, acidic condition pH6.0, reference CCT301-38
AXL on CHO-AXL细胞 [2] = target: T1, AXL on CHO-AXL细胞; experiment: flow cytometry on CHO-AXL cells, pH6.0 against pH7.4

Row | 平均荧光强度 (MFI), fold over positive control CCT301-38 (AXL on CHO-AXL细胞 [1]) | 平均荧光强度 (MFI), acidic condition over neutral condition (AXL on CHO-AXL细胞 [2]) | Binder
1 | ~4 倍 (fold) | ~1.5 倍 (fold) | Hu001-11抗体 (full-length human IgG1 kappa) (antibody, V domains shown) VH: QVQLLESGGGVVQPGRSLRLSCAASGFTFSSYGMHWVRQAPGKGLEWVAVISYDGSNKYYADSVKGRFTISRDNSKNTLYLQMNSLRAEDTAVYYCAKYGSSGPYWYFDLWGQGTLVTVSA VL: not shown
2 | ~4 倍 (fold) | ~1.5 倍 (fold) | Hu001-5抗体 (full-length human IgG1 kappa) (antibody, V domains shown) VH: QVQLLESGGGVVQPGRSLRLSCAASGFTFSSYGMHWVRQAPGKGLEWVAVISYDGSNKYYADSVKGRFTISRDNSKNTLYLQMNSLRAEDTAVYYCAKDQVLAPVGGGLFDYWGQGTLVTVSA VL: DIQLTQSPSSLSASVGDRVTITCRASQSISTYLNWYQQKPGKAPESLIFAASSLASGVPSRFSGSGSGTDFTLTISSLQPEDFATYYCQQSYSTPRTFGPGTKVEIK
